Test results as given in the supplement of paper PMC7125110.
± gives the standard error. For part of these data: Variants at the floor of the assay were thinned out.

B1: glmS ribozyme (parent)
chain: AUAAAAGCGCCAGAACUACAGAAAUGUAGUUGACGAGGAGGAGGUUUAUCGAAUUUUCGGCGGAUGCCUCCAAA

Legend:
Settings in all cases: with glucosamine-6-phosphate
glucosamine-6-phosphate [1] = variants of: B1; experiment: kcat; higher = faster cleavage; RNA array
Procedure, shortened: (§1)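 Sequenced MiSeq chips were the platform: E. coli RNA polymerase transcribed barcoded ribozyme variants on them in situ, and a hybridised Cy3 probe tracked these at 37 °C. After glucosamine-6-phosphate (40 μM to 10 mM) in HEPES/KCl/Mg(OAc)2 buffer was flowed in, tiles were imaged over ~14 h. Signals normalised to baseline and to non-cleaving reference variants were reduced to per-tile medians and fit to one- or two-exponential decays to obtain kobs. kcat and KM were derived through weighted Michaelis–Menten fits across concentrations.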

glucosamine-6-phosphate [2] = variants of: B1; experiment: KM; higher = weaker cofactor use; RNA array
Procedure, shortened: as §1

glucosamine-6-phosphate [3] = variants of: B1; experiment: self-cleavage kobs at 40 uM GlcN6P; higher = faster cleavage; RNA array
Procedure, shortened: as §1

glucosamine-6-phosphate [4] = variants of: B1; experiment: self-cleavage kobs at 160 uM GlcN6P; higher = faster cleavage; RNA array
Procedure, shortened: as §1

glucosamine-6-phosphate [5] = variants of: B1; experiment: self-cleavage kobs at 640 uM GlcN6P; higher = faster cleavage; RNA array
Procedure, shortened: as §1

glucosamine-6-phosphate [6] = variants of: B1; experiment: self-cleavage kobs at 2500 uM GlcN6P; higher = faster cleavage; RNA array
Procedure, shortened: as §1

glucosamine-6-phosphate [7] = variants of: B1; experiment: self-cleavage kobs at 10000 uM GlcN6P; higher = faster cleavage; RNA array
Procedure, shortened: as §1

| Variant | kcat (glucosamine-6-phosphate [1]) [s⁻¹] | KM (glucosamine-6-phosphate [2]) [µM] | self-cleavage kobs at 40 uM GlcN6P (glucosamine-6-phosphate [3]) [s⁻¹] | self-cleavage kobs at 160 uM GlcN6P (glucosamine-6-phosphate [4]) [s⁻¹] | self-cleavage kobs at 640 uM GlcN6P (glucosamine-6-phosphate [5]) [s⁻¹] | self-cleavage kobs at 2500 uM GlcN6P (glucosamine-6-phosphate [6]) [s⁻¹] | self-cleavage kobs at 10000 uM GlcN6P (glucosamine-6-phosphate [7]) [s⁻¹] |
| --- | --- | --- | --- | --- | --- | --- | --- |
| C16G U56G | 0.00338 ± 0.00054 | 1220 ± 320 | 0.000129 ± 2.5e-05 | 0.000387 ± 9.6e-05 | 0.000953 ± 0.00023 | 0.00213 ± 0.00038 | 0.00348 ± 0.00064 |
| G32C C67U | 2.59e-05 ± 7.6e-07 | 885 ± 190 |  |  |  |  | 2.39e-05 ± 5.6e-06 |
| C34A C67G | < 1e-05 |  | < 1e-05 | < 1e-05 | < 1e-05 | < 1e-05 |  |
| G37A U46C | 0.0015 ± 0.00029 | 4230 ± 1100 |  | 5.92e-05 ± 9.2e-06 | 0.000204 ± 3e-05 | 0.00046 ± 8e-05 | 0.00117 ± 0.00017 |
| G7U C70G | 0.000479 ± 0.00015 |  | 0.000382 ± 0.00012 | 0.000844 ± 0.0002 | 0.0004 ± 0.00014 |  |  |
| C16U U31G | 0.0126 ± 0.0042 | 3460 ± 1500 | 0.000138 ± 2.7e-05 | 0.00118 ± 0.00045 | 0.00226 ± 0.00062 | 0.00478 ± 0.00085 | 0.0111 ± 0.0031 |
| A14G A64G U65A | 0.00407 ± 0.0014 |  | 0.000284 ± 0.0001 | 0.000621 ± 0.00019 | 0.00307 ± 0.0012 | 0.00271 ± 0.0008 | 0.00718 ± 0.0031 |
| A64G C71A | 0.000799 ± 8.2e-05 | 1410 ± 280 |  | 7.29e-05 ± 1.4e-05 | 0.000265 ± 3.8e-05 | 0.00059 ± 7.4e-05 | 0.000652 ± 7.6e-05 |
| U31A A48U | 9.44e-05 ± 4.1e-05 |  |  |  | 4.25e-05 ± 1.5e-05 | 5.43e-05 ± 1.6e-05 | 0.000133 ± 4.7e-05 |
| C10A U57A | < 1e-05 |  |  |  | < 1e-05 |  |  |
| C10A U56A | < 1e-05 |  |  |  |  |  | < 1e-05 |
| U69C C70A | 5.97e-05 ± 1.3e-05 |  |  |  | 7.51e-05 ± 2e-05 | 4.46e-05 ± 2.2e-05 | 5.64e-05 ± 1.2e-05 |
| G32A A42G | 0.00505 ± 0.0014 | 3140 ± 1200 | 7.49e-05 ± 1.3e-05 | 0.000193 ± 3.2e-05 | 0.00133 ± 0.00025 | 0.00281 ± 0.00043 | 0.00357 ± 0.00047 |
| A6U G40A | 5.46e-05 ± 2e-06 | 1650 ± 280 |  |  |  | 3.37e-05 ± 1e-05 | 4.67e-05 ± 7e-06 |
| A12U C61U | 2.71e-05 ± 7.4e-06 |  |  |  |  | 3.1e-05 ± 1.2e-05 |  |
| A12G U31G | 0.000573 ± 0.00012 | 4660 ± 1500 |  |  | 6.61e-05 ± 8.2e-06 | 0.000254 ± 3.4e-05 | 0.000374 ± 3.9e-05 |
| U31C A52G C67U | 0.000208 ± 9.4e-05 |  |  |  | 9.07e-05 ± 3.5e-05 | 6.61e-05 ± 1.4e-05 | 0.000147 ± 2.6e-05 |
